According to US20160200789A1, “IL4 CONJUGATED TO ANTIBODIES AGAINST EXTRACELLULAR MATRIX COMPONENTS” (PHILOGEN S.P.A., priority 2013, published 2016):

Legend:
[1] = test system: collagen induced arthritis in DBA/1J mice; test: Aggressive collagen induced arthritis model, targeted vs untargeted IL4 (Example 3a); format: in vivo, mouse; details: 100 μg/injection i.v., days 1, 3 and 7
Method: Injections were administered on day 1, 3 and 7.

[2] = test system: tumour neovascular structures in murine F9, CT26 and A20 tumours; test: Immunofluorescence on untreated tumour sections; design: species or system mouse; details: biotinylated protein on F9, CT26 and A20 tumour sections
Excerpt: For detection streptavidin-Alexa Fluor 488 and anti-rat-Alexa Fluor 594 (Invitrogen) were used. Slides were mounted with fluorescent mounting medium (Dako) and analyzed with an Axioskop2 mot plus microscope (Zeiss).

[3] = test system: F9 teratocarcinoma; test: Quantitative biodistribution in F9 tumour-bearing mice; format: in vivo, mouse
Method: The in vivo targeting performance was assessed by quantitative biodistribution where 15 μg of radioiodinated fusion protein was injected i.v. into the lateral tail vein of immunocompetent 11-12 week old female Sv129Ev mice (obtained from Charles River [Germany]), bearing sub-cutaneously grafted F9 tumours (for labelling protocol, see (Pasche et al. 2011)). Mice were sacrificed 24 hours after injection, organs were excised, weighed and radioactivity was measured using a Packard Cobra γ counter.

[4] = test system: F9 teratocarcinoma; test: Ex vivo immunofluorescence of treated F9 tumours; format: in vivo, mouse; details: ex vivo immunofluorescence after i.v. administration
Method: For ex vivo detection of the localization of the IL4-based immunocytokines and of tumour infiltrating cells after therapy, mice were injected three times with the appropriate proteins as for therapy experiments and sacrificed two days after the last injection. Tumours were excised, embedded in cryoembedding medium (Thermo Scientific) and cryostat sections (10 μm) were stained using the antibodies: Anti-IL4 antibody (eBioscience), CD45 (leukocytes, BD Biosciences), CD4 (CD4+Tcells, BioXCell), CD8 (CD8+Tcells, BioXCell), F4/80 (macrophages, Abcam), Asialo GM1 (NK cells, Wako Pure Chemical Industries), CD45R (B cells, eBioscience), Foxp3 (eBioscience), CD31 (Santa Cruz); and detected with AlexaFluor488 respectively AlexaFluor594 coupled secondary antibodies (Invitrogen). Slides were mounted with fluorescent mounting medium (Dako) and analyzed with an Axioskop2 mot plus microscope (Zeiss).

[5] = test system: F9 teratocarcinoma; test: Therapy studies in F9 teratocarcinoma-bearing mice; format: in vivo, mouse
Method: In a dose finding study, F9 tumour-bearing mice were randomly grouped (n=5) and injected intravenously (i.v.) into the lateral tail vein when tumours were clearly palpable. […] The therapeutic antibodies were all dissolved in phosphate buffered saline (PBS) and this buffer was also used in the negative control treatment groups. The mice were monitored daily and tumour volume was measured with a calliper (volume=length×width^2×0.5).

[6] = Solubility of the product (limit of dose escalation); format: physicochemical; details: doses above 90 μg could not be tested
[7] = test system: imiquimod (IMQ)-induced ear inflammation in C57BL/6 mice; test: IMQ-induced inflammation model of psoriasis; format: in vivo, mouse
Method: C57BL/6 mice (Charles River, Germany) were treated on each side of each ear with 5 mg Aldara cream (containing 0.25 mg Imiquimod). The treatment schedule is illustrated in FIG. 11A. The Aldara cream was applied every day for 5 days (on day 1, 2, 3, 4 5 and […]: each application is illustrated by an asterisk in FIG. 11A). Ear thickness was measured with a caliper before the application of the cream. […] Treatment was repeated on day 9 and 11 (each treatment event is illustrated by an arrow in FIG. 11A).

[8] = test system: CHS-induced ear inflammation in K14-VEGF-A mice; test: Contact hypersensitivity-induced ear inflammation in K14-VEGF-A mice; format: in vivo, mouse
Excerpt: A delayed-type hypersensitivity reaction was induced in the ear skin of female FVB mice that overexpress VEGF-A in the epidermis under control of the human keratin 14 promoter as previously described (Detmar et al., 1998; Kunstfeld et al., 2004; Xia et al., 2003). Heterozygous VEGF-A transgenic mice with no pre-existing inflammatory lesions were sensitized by topical application of a 2% oxazolone (4-ethoxymethylene-2-phenyl-2-oxazoline-5-one; Sigma) solution in acetone/olive oil (4:1 vol/vol) to the shaved abdomen (50 μl) and each paw (5 μl). Five days after sensitization, the ears were challenged by topical application of 20 μl of a 1% oxazolone solution. Therapy was started on day 7 and repeated at day 9, 11 and 13. […] Ear thickness was measured every other day and at day 15, mice were sacrificed and ear draining lymph nodes were weighted. The timeline for this experiment is illustrated in FIG. 13A. Each treatment event is indicated by an arrow.

[9] = test system: A20 lymphoma; test: Therapy studies in A20 tumour-bearing mice; details: 90 μg i.v. every second day
Excerpt: (§1) Data represent mean tumour volumes (±SEM), n=5 mice per group. […] Data represent mean tumour volumes (±SEM), n=5 mice per group.
Differences in tumor volume, % ID/g and Tumor-to-blood ratio between therapeutic groups were compared using Graphpad Prism's repeated measures (mixed model) ANOVA analysis.
For this, as well as the other experiments described below, F9 teratocarcinoma (CRL-1720; ATCC, Molsheim Cedex, France), CT26 colon carcinoma (CRL-2638; ATCC, Molsheim Cedex, France) and A20 lymphoma (TIB-208; ATCC, Molsheim Cedex, France) were grown according to the supplier's protocol and tumour cells implanted subcutaneously in the flank using 25×10^6 cells (F9), 2×10^6 cells (CT26) or 8×10^6 cells (A20). F9 teratocarcinoma cells were implanted into 129/SvEv mice (Charles River, Sulzfeld, Germany), CT26 colon carcinoma cells were implanted into Balb/c mice (Elevage Janvier, Le Genest-St-Isle, France) and A20 lymphoma cells were implanted into Balb/c mice (Elevage Janvier, Le Genest-St-Isle, France). Mice were sacrificed when tumour volumes reached a maximum of 2000 mm^3.

[10] = test system: CT26 colon carcinoma; test: Therapy studies in CT26 tumour-bearing mice; details: 90 μg i.v. every 48 h
Excerpt: as §1
In the description of the below experiments, data are expressed as the mean (±SEM). Differences in tumor volume, % ID/g and Tumor-to-blood ratio between therapeutic groups were compared using Graphpad Prism's repeated measures (mixed model) ANOVA analysis.
Mice were sacrificed when tumour volumes reached a maximum of 2000 mm^3.
In order to study a second immunocompetent mouse model of cancer, the inventors focused on Balb/c mice (obtained from Elevage Janvier [France]) bearing subcutaneous CT26 tumours of colorectal origin.

[11] = 15 μg radioiodinated protein i.v., 24 hours

B1: F8-IL4: antibody F8 (anti-EDA of fibronectin) in diabody format fused at the C-terminus to murine interleukin 4 via 15 amino acid linker (protein)
chain: EVQLLESGGGLVQPGGSLRLSCAASGFTFSLFTMSWVRQAPGKGLEWVSAISGSGGSTYYADSVKGRFTISRDNSKNTLYLQMNSLRAEDTAVYYCAKSTHLYLFDYWGQGTLVTVSSGGSGGEIVLTQSPGTLSLSPGERATLSCRASQSVSMPFLAWYQQKPGQAPRLLIYGASSRATGIPDRFSGSGSGTDFTLTISRLEPEDFAVYYCQQMRGRPPTFGQGTKVEIKSSSSGSSSSGSSSSGHIHGCDKNHLREIIGILNEVTGEGTPCTEMDVPNVLTATKNTTESELVCRASKVLRIFYLKHGKTPCLKKNSSVLMELQRLFRAFRCLDSSISCTMNESKSTSLKDFLESLKSIMQMDYS
modifications: Synthetic sequence Amino acid sequence of F8 -(murine) IL4 of PCT/EP2014/053998
notes: antibody F8 (anti-EDA of fibronectin) in diabody format fused at the C-terminus to murine interleukin 4 via 15 amino acid linker
Which “activity in reducing arthritic score and paw swelling compared to KSF-IL4” value [1] does the source give for B1 here?
Its value is “statistically significant superior activity”.

And the “recognition of tumour neovascular structures” value [2]?
The value was “able to recognize tumour neovascular structures”.

What about the “accumulation at the tumour site (% ID/g)” value [3, 11] of the same molecule?
Its value is “preferential accumulation”.

And the tumour-to-blood ratio [3, 11]?
Its tumour-to-blood ratio is 12.

What about the “clearance from the blood stream” value ([3]; 24 hours after i.v. injection) of the same molecule?
Its value is “fast clearance from the blood stream”.

And the “accumulation on CD31-positive tumour neo-vascular structures” value [4]?
The value was “preferential accumulation”.

And the “tumour retardation in dose finding study” value ([5]; 90 μg compared with 45 μg, i.v. every second day)?
The value was “best tumour retardation results”.

What about the “therapeutic effect compared with KSF-IL4” value ([5]; 90 μg i.v. every second day) of the same molecule?
The value was “substantially more potent”.

What about the “cure of F9 tumours by treatment alone” value ([5]; monotherapy) of the same molecule?
Its value is “not cured”.

And the single-agent therapeutic activity ([5]; mouse, in vivo)?
Its single-agent therapeutic activity is “potent single-agent therapeutic activity”.

And the solubility [6]?
The solubility was “insufficient solubility”.

And the ear thickness ([7]; 100 μg i.v. days 7, 9, 11, day 13, vs PBS or KSF-IL4)?
The ear thickness was “significantly reduced ear thickness”.

And the “ear draining lymph nodes (weight)” value ([7]; day 13)?
Its value is “smaller”.

What about the “decrease in ear thickness from treatment initiation (day 7)” value ([7]; mouse, in vivo) of the same molecule?
Its value is “significantly more than in mice receiving either PBS, F8-SIP or KSF-IL4 treatment”.

What about the ear thickness ([8]; 100 μg i.v. days 7, 9, 11, 13, vs PBS or KSF-IL4) of the same molecule?
The ear thickness was “significantly reduced ear thickness”.

What about the “ear draining lymph nodes (weight)” value ([8]; day 15) of the same molecule?
The value was “smaller”.

And the “decrease in ear thickness from treatment initiation (day 7)” value ([8]; mouse, in vivo)?
Its value is “significantly more than treatment with either FSF-IL4, F8-SIP or PBS”.

What about the tumour growth retardation [9] of the same molecule?
The tumour growth retardation was “superior tumour growth retardation compared to KSF-IL4”.

And the therapeutic performance [10]?
Its therapeutic performance is “superior therapeutic performance compared to KSF-IL4”.
